Reference: patent US7595173B2, “Low-cost production of peptides” (Dow Global Technologies Inc., priority 2002, dated 2009)

B1: AB4: trimer comprising a leader segment, three AMPs each separated by a tripeptide linker, and a trailer segment (protein)
chain: MASMTGGQQMGRDPFAKKFAKKFKKFAKKFAKFAFAFGDPFAKKFAKKFKKFAKKFAKFAFAFGDPFAKKFAKKFKKFAKKFAKFAFAFGDPSRRSLRKSSRNLPRSLPSSHSRSVIRIRAPSTSLRPHSSTTTTTTEIRLLTKPERKLSWLLPPLSNN
modifications: Amino acid sequence of the AB4 trimer.
B2: 4A dimer: dimer having two D2A21 antimicrobial peptides connected by the Gly-Asp/Pro cleavage sequence, with leader and His-tag trailer (protein)
chain: MASMTGGQQMGRDPFAKKFAKKFKKFAKKFAKFAFAFGDPFAKKFAKKFKKFAKKFAKFAFAFGDPNSSSVDKLAAALEHHHHHH
modifications: Amino acid sequence of the 4A dimer.

Tested on: E. coli strain BL21 (DE3)
Assay: Antimicrobial activity: dose-dependent inhibition of E. coli growth (standard growth inhibition assay)
Format: cell-based
Experimental: The antimicrobial activity of the cleaved peptides (same samples from Examples 5 and 6) was determined by measuring the dose-dependent inhibition of E. coli growth. The samples were tested for their ability to inhibit the growth of an overnight culture inoculated with E. coli strain BL21 (DE3). AMP samples were diluted serially into water in 96 well plates. Overnight cultures of E. coli BL21 (DE3) cells were diluted 1:50 into LB broth and 250 μl aliquots were transferred into 96-well plates. Each plate was incubated at 37° C. for one hour and then 50 μl of diluted peptide (or water) were added to each well. Each plate was incubated overnight at 37° C. and then the culture density was determined by measuring the apparent absorbance at 600 nm using a Spectromax Plus plate reader.

| Molecule | antimicrobial activity of cleaved trimer (digested with formic acid at 60° C.) | antimicrobial activity (Ni-purified, dialyzed, uncleaved dimer) | antimicrobial activity (after 50% formic acid treatment, 70° C., 24 hours) | antimicrobial activity (water-treated (control), 70° C., 24 hours) |
| --- | --- | --- | --- | --- |
| B1 | potent antimicrobial activity |  |  |  |
| B2 |  | no detectable antimicrobial activity | significant antimicrobial activity | no activity |
